Test results: patent US20240270857A1 (CHIA TAI TIANQING PHARMACEUTICAL GROUP, published 2024)

T1: IL-36R naturally expressed on OVCAR8 cells and on normal human epidermal keratinocytes (NHK cells) (human, UniProt Q9HB29 20-575)
T1 sequence (looked up): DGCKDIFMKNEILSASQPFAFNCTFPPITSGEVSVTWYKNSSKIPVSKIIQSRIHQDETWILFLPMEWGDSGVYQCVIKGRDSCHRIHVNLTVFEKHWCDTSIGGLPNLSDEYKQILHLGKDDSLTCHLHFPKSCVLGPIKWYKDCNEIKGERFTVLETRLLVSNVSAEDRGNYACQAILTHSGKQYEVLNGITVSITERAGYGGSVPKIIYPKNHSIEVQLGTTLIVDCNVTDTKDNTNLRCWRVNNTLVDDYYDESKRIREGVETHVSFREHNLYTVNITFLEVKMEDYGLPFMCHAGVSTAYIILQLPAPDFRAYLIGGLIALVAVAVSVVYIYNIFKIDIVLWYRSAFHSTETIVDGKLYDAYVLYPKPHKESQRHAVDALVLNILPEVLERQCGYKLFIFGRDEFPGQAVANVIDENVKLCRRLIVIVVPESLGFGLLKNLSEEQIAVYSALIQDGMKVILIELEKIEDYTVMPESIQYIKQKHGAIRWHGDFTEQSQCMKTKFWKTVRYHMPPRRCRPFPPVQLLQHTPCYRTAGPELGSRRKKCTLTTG

T2: Human IL-1Rrp2/IL-1R6 protein, His Tag (ACROBiosystems, IL2-H52H6) (human, UniProt Q9HB29 20-335)
T2 construct: Bought protein; the soluble protein is likely only the extracellular part; also called hIL-36R; human IL36R antigen; not shown: His tag
T2 sequence: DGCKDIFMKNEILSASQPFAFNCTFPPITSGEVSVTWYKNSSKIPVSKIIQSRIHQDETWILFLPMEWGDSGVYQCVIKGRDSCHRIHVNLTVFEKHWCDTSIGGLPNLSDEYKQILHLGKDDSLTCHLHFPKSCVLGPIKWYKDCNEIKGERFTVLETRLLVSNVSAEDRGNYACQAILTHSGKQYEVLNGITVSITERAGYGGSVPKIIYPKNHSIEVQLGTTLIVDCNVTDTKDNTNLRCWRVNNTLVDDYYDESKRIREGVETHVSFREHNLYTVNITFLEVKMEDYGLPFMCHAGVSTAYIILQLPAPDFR


Tests used:
[1] = molecular target: T1, IL-36R naturally expressed on OVCAR8 …; assay: cell-based or functional assay
[2] = molecular target: T2, Human IL-1Rrp2/IL-1R6 protein, His Tag …; assay: BLI (ForteBio Octet), antibody on ProA sensor, 1:1 model
Description: The affinity of anti-IL-36R antibodies to CynoIL36R-ECD mFc and human IL-1Rrp2/IL-IR6 protein, His Tag (ACROBiosystems, IL2-H52H6) was measured by a ForteBio molecular interaction instrument. […] And then the biosensor was used to bind CynoIL36R-ECD mFc or human IL-1Rrp2/IL-1R6 protein, His Tag which was diluted by a gradient (the initial concentration was 200 nM, 2-fold gradient dilution), the response signals were detected in real time using a Fortebio molecular interaction instrument (SARTORIUS, octet red 96e), and association and dissociation curves were obtained. After the completion of dissociation in each cycle, the biosensor was regenerated for the next capture; the procedure was repeated until the affinity of the different anti-IL-36R antibodies for IL-36R was determined. The resulting data were analyzed by Fortebio Data Analysis 11.0 software in a 1:1 (Langmuir) binding model to determine kₐ (kₒₙ) and kd (koff) values, and the dissociation constant KD was calculated by KD=kd/kₐ. The detection method essentially followed the manufacturer's recommendations, and more information could be found at www.fortebio.com.
Affinity, binding and blocking assays for humanized antibodies hz72C1-1.1, hz72C1-1.2, hz72C1-1.3, hz72C1-2.1, hz72C1-2.2 and hz72C1-2.3 as well as hz84C4-1.1, hz84C4-1.2, hz84C4-1.3, hz84C4-1.4, hz84C4-1.5, hz84C4-2.1, hz84C4-2.2, hz84C4-2.3, hz84C4-2.4 and hz84C4-2.5 were performed according to the methods of Example 4, Example 5. Example 6, Example 7 and Example 8.

Binder | IC50 (M); hIL36α; IL-8 production [1] | IC50 (M); hIL36αβγ; IL-8 production [1] | IC50 (M); hIL36β; IL-8 production [1] | IC50 (M); hIL36γ; IL-8 production [1] | Maximum inhibition rate %; hIL36α; IL-8 production [1] | Maximum inhibition rate %; hIL36αβγ; IL-8 production [1] | Maximum inhibition rate %; hIL36β; IL-8 production [1] | Maximum inhibition rate %; hIL36γ; IL-8 production [1] | Kd [2] | koff [2] | kon [2] | IC50; hIL36γ; IL-8 production [1]
hz84C4-1.5 (antibody, human IgG4 S228P, kappa, V domains shown, Humanized, human IgG4 / kappa) VH: QVQLVQSGAEVKKPGASVKVSCKVSGYFFTSYWMNWVNQAPGQGLEWMGMIHPYDSETRLAQKFKGRVTMTVDKSTSTVYMELSSLRSEDTAVYYCASSTTAFAYWGQGTLVTVSS VL: DIQMTQSPSSLSASVGDRVTITCRASQDIGNALNWYQQKPGKAPKRLIYATSSLDPGVPSRFSGSRSGTDFTLTISSLQPEDFATYYCLQYASSPYTFGQGTKVEIKR | 8.48e-12 M | 7.24e-12 M | 1.06e-11 M | 5.29e-12 M | 99.5% | 99.3% | 99.2% | 99.6% | 1340 pM | 0.000134 s⁻¹ | 100000 M⁻¹ s⁻¹ | 
hz84C4-2.1 (antibody, human IgG4 S228P, kappa, V domains shown, Humanized, human IgG4 / kappa) VH: QVQLVQSGAEVKKPGASVKVSCKASGYFFTSYWMNWVRQAPGQGLEWMGMIHPYDSETRYAQKFQGRVTMTVDKSTSTVYMELSSLRSEDTAVYYCASSTTAFAYWGQGTLVTVSS VL: DIQMTQSPSSLSASVGDRVTITCRASQDIGNALNWLQQKPGKAPKRLIYATSSLDPGVPSRFSGSRSGTDYTLTISSLQPEDFATYYCLQYASSPYTFGQGTKVEIKR | 1.09e-11 M | 3.66e-12 M | 5.7e-12 M | 6.45e-12 M | 99.9% | 99.9% | 99.3% | 99.6% | 1220 pM | 0.000116 s⁻¹ | 94500 M⁻¹ s⁻¹ | 
hz84C4-2.2 (antibody, human IgG4 S228P, kappa, V domains shown, Humanized, human IgG4 / kappa) VH: QVQLVQSGAEVKKPGASVKVSCKASGYFFTSYWMNWVRQAPGQGLEWMGYIHPYDSETRYAQKFQGRVTMTVDKSTSTVYMELSSLRSEDTAVYYCASSTTAFAYWGQGTLVTVSS VL: DIQMTQSPSSLSASVGDRVTITCRASQDIGNALNWLQQKPGKAPKRLIYATSSLDPGVPSRFSGSRSGTDYTLTISSLQPEDFATYYCLQYASSPYTFGQGTKVEIKR | 1.19e-11 M | 1.31e-11 M | 8.59e-12 M | 8.61e-12 M | 99.2% | 99.2% | 98.5% | 98.7% | 1550 pM | 0.000142 s⁻¹ | 91500 M⁻¹ s⁻¹ | 
hz84C4-2.3 (antibody, human IgG4 S228P, kappa, V domains shown, Humanized, human IgG4 / kappa) VH: QVQLVQSGAEVKKPGASVKVSCKASGYFFTSYWMNWVRQAPGQGLEWMGMIYPYDSETRYAQKFQGRVTMTVDKSTSTVYMELSSLRSEDTAVYYCASSTTAFAYWGQGTLVTVSS VL: DIQMTQSPSSLSASVGDRVTITCRASQDIGNALNWLQQKPGKAPKRLIYATSSLDPGVPSRFSGSRSGTDYTLTISSLQPEDFATYYCLQYASSPYTFGQGTKVEIKR | ~6.47e-12 M | ~4.34e-12 M | 3.42e-12 M |  | 28.4% | 40.6% | 18.6% | 41.5% | 831 pM | 5.12e-05 s⁻¹ | 61600 M⁻¹ s⁻¹ | 6.2 pM
hz84C4-2.4 (antibody, human IgG4 S228P, kappa, V domains shown, Humanized, human IgG4 / kappa) VH: QVQLVQSGAEVKKPGASVKVSCKASGYYFTSYWMNWVRQAPGQGLEWMGMIHPYDSETRLAQKFKGRVTMTVDKSTSTVYMELSSLRSEDTAVYYCASSTTAFAYWGQGTLVTVSS VL: DIQMTQSPSSLSASVGDRVTITCRASQDIGNALNWLQQKPGKAPKRLIYATSSLDPGVPSRFSGSRSGTDYTLTISSLQPEDFATYYCLQYASSPYTFGQGTKVEIKR | 7.52e-12 M | 2.58e-12 M | 7.24e-12 M | 5.15e-12 M | 99.5% | 98.8% | 99.1% | 99.3% | 1880 pM | 0.000196 s⁻¹ | 105000 M⁻¹ s⁻¹ | 
